Laboratory results reported in paper PMC9873573, “Cryo-EM structure of the respiratory I + III2 supercomplex from Arabidopsis thaliana at 2 Å resolution” (Nature Plants, 2022).

T1: complex I, FMN / NADH site (51 kDa subunit), in the I + III2 supercomplex (Arabidopsis thaliana, UniProt Q9FNN5)
T1 construct: gene At5g08530; native supercomplex; tested as whole I + III2 assembly of 68 subunits
T1 sequence (Q9FNN5 31-486): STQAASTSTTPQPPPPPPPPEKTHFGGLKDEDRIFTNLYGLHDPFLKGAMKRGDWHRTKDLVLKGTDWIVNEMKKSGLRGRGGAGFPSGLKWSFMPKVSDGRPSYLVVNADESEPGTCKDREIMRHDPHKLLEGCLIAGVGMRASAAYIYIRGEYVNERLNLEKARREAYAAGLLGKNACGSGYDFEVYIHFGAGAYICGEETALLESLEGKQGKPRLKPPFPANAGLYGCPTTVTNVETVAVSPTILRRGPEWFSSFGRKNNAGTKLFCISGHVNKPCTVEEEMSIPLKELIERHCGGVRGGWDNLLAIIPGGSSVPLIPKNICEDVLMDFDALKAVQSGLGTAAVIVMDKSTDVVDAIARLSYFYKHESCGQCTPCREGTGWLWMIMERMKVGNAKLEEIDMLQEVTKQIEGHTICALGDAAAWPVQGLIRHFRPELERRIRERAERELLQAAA

T2: mitochondrial processing peptidase subunit MPP-α-1 of complex III (Arabidopsis thaliana (endogenous in …, UniProt Q9ZU25 60-503))
T2 construct: MPP-α, isoform 1 (the dominant isoform, fitted to the map), subunit of Arabidopsis thaliana complex III
T2 sequence (looked up): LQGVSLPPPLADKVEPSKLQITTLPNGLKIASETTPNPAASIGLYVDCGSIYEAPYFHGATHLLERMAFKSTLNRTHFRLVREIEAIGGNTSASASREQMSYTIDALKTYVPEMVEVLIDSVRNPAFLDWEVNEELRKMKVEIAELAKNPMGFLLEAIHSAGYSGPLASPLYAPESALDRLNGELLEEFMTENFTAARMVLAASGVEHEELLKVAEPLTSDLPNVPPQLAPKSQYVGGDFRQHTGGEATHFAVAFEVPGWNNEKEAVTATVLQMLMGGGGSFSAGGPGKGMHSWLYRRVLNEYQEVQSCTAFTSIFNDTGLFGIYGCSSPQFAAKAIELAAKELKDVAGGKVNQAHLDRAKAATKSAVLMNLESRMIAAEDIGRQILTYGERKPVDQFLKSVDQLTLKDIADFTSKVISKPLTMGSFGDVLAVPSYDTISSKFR

T3: mitochondrial processing peptidase subunit MPP-β of complex III (Arabidopsis thaliana (endogenous in …, UniProt Q42290 79-531))
T3 construct: MPP-β, subunit of Arabidopsis thaliana complex III
T3 sequence (looked up): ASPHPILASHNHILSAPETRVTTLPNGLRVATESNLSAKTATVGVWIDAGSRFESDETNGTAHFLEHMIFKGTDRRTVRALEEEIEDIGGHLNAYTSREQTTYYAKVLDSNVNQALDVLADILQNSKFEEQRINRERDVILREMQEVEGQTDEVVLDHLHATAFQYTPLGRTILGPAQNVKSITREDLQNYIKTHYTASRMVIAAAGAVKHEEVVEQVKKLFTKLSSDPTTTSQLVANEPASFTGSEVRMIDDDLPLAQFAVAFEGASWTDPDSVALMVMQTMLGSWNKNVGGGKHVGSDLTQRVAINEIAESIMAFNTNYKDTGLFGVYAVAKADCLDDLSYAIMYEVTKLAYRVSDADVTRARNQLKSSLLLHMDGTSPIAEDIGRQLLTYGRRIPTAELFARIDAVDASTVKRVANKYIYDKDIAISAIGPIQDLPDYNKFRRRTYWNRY

T4: complex I core subunit ND5 (Arabidopsis thaliana (endogenous in …, UniProt P29388 1-669))
T4 sequence (looked up): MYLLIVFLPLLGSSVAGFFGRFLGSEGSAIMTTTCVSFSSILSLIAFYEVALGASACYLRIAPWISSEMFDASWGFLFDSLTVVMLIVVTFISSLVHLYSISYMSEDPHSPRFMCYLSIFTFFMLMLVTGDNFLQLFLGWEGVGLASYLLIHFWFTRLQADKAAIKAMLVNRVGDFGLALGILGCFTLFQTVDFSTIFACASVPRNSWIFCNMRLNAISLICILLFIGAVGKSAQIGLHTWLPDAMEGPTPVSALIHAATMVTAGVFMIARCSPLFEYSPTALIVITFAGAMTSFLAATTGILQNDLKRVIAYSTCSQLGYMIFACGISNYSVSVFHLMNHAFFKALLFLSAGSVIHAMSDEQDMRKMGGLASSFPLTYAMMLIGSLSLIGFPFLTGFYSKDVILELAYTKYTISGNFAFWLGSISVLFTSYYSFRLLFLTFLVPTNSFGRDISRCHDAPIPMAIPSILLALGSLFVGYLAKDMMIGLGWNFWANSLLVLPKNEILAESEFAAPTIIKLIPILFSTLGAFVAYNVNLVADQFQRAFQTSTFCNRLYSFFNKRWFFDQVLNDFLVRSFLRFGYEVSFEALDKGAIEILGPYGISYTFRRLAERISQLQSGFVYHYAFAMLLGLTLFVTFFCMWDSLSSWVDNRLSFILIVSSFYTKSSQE

B1: complex III subunit QCR6-1 (natural protein, UniProt Q0WWE3 1-69, looked up)
chain: MADDEVVDPKKYLEESCKPKCVKPLLEYQACVKRIQGDDSGHKHCTGQYFDYWQCIDKCVAPKLFAKLK
notes: QCR6, isoform 1 (the dominant isoform, fitted to the map), accessory subunit of Arabidopsis thaliana complex III
B2: complex III subunit QCR8-1 (natural protein, UniProt Q9SG91 1-72, looked up)
chain: MGKQPVKLKAVVYALSPFQQKIMTGLWKDLPEKIHHKVSENWISATLLVTPVVGTYWYAQYFKEQEKLEHRF
notes: QCR8, isoform 1 (the dominant isoform, fitted to the map), accessory subunit of Arabidopsis thaliana complex III
B3: complex I subunit B22 (natural protein, UniProt Q945M1 1-117, looked up)
chain: MSGVSTAAYFARRAAQKERVRILYRRALKDTLNWAVHRHIFYRDASDLREKFNVNQDVEDVDRIDKLIAHGEAEYNKWRHPDPYIVPWAPGGSKFCRNPTPPAGIEIVYNYGLEDNP
notes: accessory subunit B22 of Arabidopsis thaliana mitochondrial complex I (membrane arm)
B4: complex I subunit B14.7 (natural protein, UniProt O48528 1-159, looked up)
chain: MDPAEMRYLEEEDGPLMKTIKGSITGFGAGTIYGTILATWKDVPRVERNVALPGLIRTLKMMGTHGLTFAAIGGVYIGVEQLVQNFRSKRDFYNGAIGGFVAGASVLGYRARSIPTAIAAGATLAVTSALIDSGGQTTRVDNGREYYPYTVEKRAEADS
notes: subunit B14.7 of Arabidopsis thaliana mitochondrial complex I (membrane arm); absent from the earlier structures of free plant complex I; also called B14.7 kDa subunit

Legend:
[1] = target: T1, complex I, FMN / NADH site (51 kDa subunit), in the I + III2 supercomplex; test: cryo-EM structure, […] Å; format: binding; details: co-purified
complex I subunit B14.7 = target: B4; test: cryo-EM structure; native I + III2 supercomplex isolated from digitonin-solubilised Arabidopsis mitochondria (sucrose gradient, Superose 6 in GDN); 30 mM Tris-HCl pH 7.4, 60 mM NaCl, 0.02% GDN; 2.36 Å for the whole supercomplex, 2.03 Å after multibody refinement, 1.9 Å after density modification; details: both partners purified
[2] = target: T2, mitochondrial processing peptidase …; test: as above; details: both partners purified
[3] = target: T3, mitochondrial processing peptidase …; test: as above; details: both partners purified
[4] = target: T4, complex I core subunit ND5; test: as above; details: both partners purified

Molecule: Cc1cc2nc3c(=O)[nH]c(=O)nc-3n(C[C@H](O)[C@H](O)[C@H](O)COP(=O)(O)O)c2cc1C [FMN]
cryo-EM structure, 2 Å [1]: Complex I: FMN (Flavin mononucleotide), N1a, N1b, N2, N3

Molecule: B1
binding result (complex I subunit B14.7): binds

Molecule: B2
binding result (complex I subunit B14.7): binds

Molecule: B3
binding result [2]: binds | binding result [3]: binds

Molecule: B4
binding result [4]: binds
